From US20220290113 come the findings set out here.

B1: Nme1Cas9-Nme2Cas9PID chimera (Nme1Cas9 with its PID replaced by that of Nme2Cas9) (protein)
chain: MAAFKPNSINYILGLDIGIASVGWAMVEIDEEENPIRLIDLGVRVFERAEVPKTGDSLAMARRLARSVRRLTRRRAHRLLRTRRLLKREGVLQAANFDENGLIKSLPNTPWQLRAAALDRKLTPLEWSAVLLHLIKHRGYLSQRKNEGETADKELGALLKGVAGNAHALQTGDFRTPAELALNKFEKESGHIRNQRSDYSHTFSRKDLQAELILLFEKQKEFGNPHVSGGLKEGIETLLMTQRPALSGDAVQKMLGHCTFEPAEPKAAKNTYTAERFIWLTKLNNLRILEQGSERPLTDTERATLMDEPYRKSKLTYAQARKLLGLEDTAFFKGLRYGKDNAEASTLMEMKAYHAISRALEKEGLKDKKSPLNLSPELQDEIGTAFSLFKTDEDITGRLKDRIQPEILEALLKHISFDKFVQISLKALRRIVPLMEQGKRYDEACAEIYGDHYGKKNTEEKIYLPPIPADEIRNPVVLRALSQARKVINGVVRRYGSPARIHIETAREVGKSFKDRKEIEKRQEENRKDREKAAAKFREYFPNFVGEPKSKDILKLRLYEQQHGKCLYSGKEINLGRLNEKGYVEIDHALPFSRTWDDSFNNKVLVLGSENQNKGNQTPYEYFNGKDNSREWQEFKARVETSRFPRSKKQRILLQKFDEDGFKERNLNDTRYVNRFLCQFVADRMRLTGKGKKRVFASNGQITNLLRGFWGLRKVRAENDRHHALDAVVVACSTVAMQQKITRFVRYKEMNAFDGKTIDKETGEVLHQKTHFPQPWEFFAQEVMIRVFGKPDGKPEFEEADTLEKLRTLLAEKLSSRPEAVHEYVTPLFVSRAPNRKMSGAHKDTLRSAKRFVKHNEKISVKRVWLTEIKLADLENMVNYKNGREIELYEALKARLEAYGGNAKQAFDPKDNPFYKKGGQLVKAVRVEKTQESGVLLNKKNAYTIADNGDMVRVDVFCKVDKKGKNQYFIVPIYAWQVAENILPDIDCKGYRIDDSYTFCFSLHKYDLIAFQKDEKSKVEFAYYINCDSSNGRFYLAWHDKGSKEQQFRISTQNLVLIQKYQVNELGKEIRPCRLKKRPPVR
For B1, in the data set with AcrIIC5Smu, the “in vitro DNA cleavage by the Nme1Cas9-Nme2Cas9PID chimera in the presence of Acr (10 uM Cas9-sgRNA + 100 uM Acr)” value is recorded as “No inhibition was observed by AcrIIC5Smu on this protein chimera”.

B2: Nme1Cas9 (Cas9 of Neisseria meningitidis strain 8013), recombinant, purified from E. coli (protein)
chain: MAAFKPNSINYILGLDIGIASVGWAMVEIDEEENPIRLIDLGVRVFERAEVPKTGDSLAMARRLARSVRRLTRRRAHRLLRTRRLLKREGVLQAANFDENGLIKSLPNTPWQLRAAALDRKLTPLEWSAVLLHLIKHRGYLSQRKNEGETADKELGALLKGVAGNAHALQTGDFRTPAELALNKFEKESGHIRNQRSDYSHTFSRKDLQAELILLFEKQKEFGNPHVSGGLKEGIETLLMTQRPALSGDAVQKMLGHCTFEPAEPKAAKNTYTAERFIWLTKLNNLRILEQGSERPLTDTERATLMDEPYRKSKLTYAQARKLLGLEDTAFFKGLRYGKDNAEASTLMEMKAYHAISRALEKEGLKDKKSPLNLSPELQDEIGTAFSLFKTDEDITGRLKDRIQPEILEALLKHISFDKFVQISLKALRRIVPLMEQGKRYDEACAEIYGDHYGKKNTEEKIYLPPIPADEIRNPVVLRALSQARKVINGVVRRYGSPARIHIETAREVGKSFKDRKEIEKRQEENRKDREKAAAKFREYFPNFVGEPKSKDILKLRLYEQQHGKCLYSGKEINLGRLNEKGYVEIDHALPFSRTWDDSFNNKVLVLGSENQNKGNQTPYEYFNGKDNSREWQEFKARVETSRFPRSKKQRILLQKFDEDGFKERNLNDTRYVNRFLCQFVADRMRLTGKGKKRVFASNGQITNLLRGFWGLRKVRAENDRHHALDAVVVACSTVAMQQKITRFVRYKEMNAFDGKTIDKETGEVLHQKTHFPQPWEFFAQEVMIRVFGKPDGKPEFEEADTLEKLRTLLAEKLSSRPEAVHEYVTPLFVSRAPNRKMSGQGHMETVKSAKRLDEGVSVLRVPLTQLKLKDLEKMVNREREPKLYEALKARLEAHKDDPAKAFAEPFYKYDKAGNRTQQVKAVRVEQVQKTGVWVRNHNGIADNATMVRVDVFEKGDKYYLVPIYSWQVAKGILPDRAVVQGKDEEDWQLIDDSFNFKFSLHPNDLVEVITKKARMFGYFASCHRGTGNINIRIHDLDHKIGKNGILEGIGVKTALSFQKYQIDELGKEIRPCRLKKRPPVR
Turning to B2, the “in vitro DNA cleavage by Cas9 in the presence of Acr (10:1 Acr:Cas9 molar ratio)” value is “all 5 families inhibited Nme1Cas9” in the data set with AcrIIC4Hpa; “AcrE2 failed to do so” with AcrE2; “all 5 families inhibited Nme1Cas9” with AcrIIC1Nme; “all 5 families inhibited Nme1Cas9” with AcrIIC3Nme; “all 5 families inhibited Nme1Cas9” in the data set with AcrIIC2Nme; “all 5 families inhibited Nme1Cas9” in the data set with AcrIIC5Smu.

B3: Recombinant Nme2Cas9 (Cas9 of Neisseria meningitidis strain Del1444), purified from E. coli (protein)
chain: PKKKRKVNAMAAFKPNPINYILGLDIGIASVGWAMVEIDEEENPIRLIDLGVRVFERAEVPKTGDSLAMARRLARSVRRLTRRRAHRLLRARRLLKREGVLQAADFDENGLIKSLPNTPWQLRAAALDRKLTPLEWSAVLLHLIKHRGYLSQRKNEGETADKELGALLKGVANNAHALQTGDFRTPAELALNKFEKESGHIRNQRGDYSHTFSRKDLQAELILLFEKQKEFGNPHVSGGLKEGIETLLMTQRPALSGDAVQKMLGHCTFEPAEPKAAKNTYTAERFIWLTKLNNLRILEQGSERPLTDTERATLMDEPYRKSKLTYAQARKLLGLEDTAFFKGLRYGKDNAEASTLMEMKAYHAISRALEKEGLKDKKSPLNLSSELQDEIGTAFSLFKTDEDITGRLKDRVQPEILEALLKHISFDKFVQISLKALRRIVPLMEQGKRYDEACAEIYGDHYGKKNTEEKIYLPPIPADEIRNPVVLRALSQARKVINGVVRRYGSPARIHIETAREVGKSFKDRKEIEKRQEENRKDREKAAAKFREYFPNFVGEPKSKDILKLRLYEQQHGKCLYSGKEINLVRLNEKGYVEIDHALPFSRTWDDSFNNKVLVLGSENQNKGNQTPYEYFNGKDNSREWQEFKARVETSRFPRSKKQRILLQKFDEDGFKECNLNDTRYVNRFLCQFVADHILLTGKGKRRVFASNGQITNLLRGFWGLRKVRAENDRHHALDAVVVACSTVAMQQKITRFVRYKEMNAFDGKTIDKETGKVLHQKTHFPQPWEFFAQEVMIRVFGKPDGKPEFEEADTPEKLRTLLAEKLSSRPEAVHEYVTPLFVSRAPNRKMSGAHKDTLRSAKRFVKHNEKISVKRVWLTEIKLADLENMVNYKNGREIELYEALKARLEAYGGNAKQAFDPKDNPFYKKGGQLVKAVRVEKTQESGVLLNKKNAYTIADNGDMVRVDVFCKVDKKGKNQYFIVPIYAWQVAENILPDIDCKGYRIDDSYTFCFSLHKYDLIAFQKDEKSKVEFAYYINCDSSNGRFYLAWHDKGSKEQQFRISTQNLVLIQKYQVNELGKEIRPCRLKKRPPVRGGGGSGGGGSGGGGSPAAKKKKLDGGGSKRPAATKKAGQAKKKK
For the protein B3, the “in vitro DNA cleavage by Cas9 in the presence of Acr (10:1 Acr:Cas9 molar ratio)” value with AcrIIC4Hpa is on record as “completely inhibited Nme2Cas9”; with AcrIIC1Nme, “completely inhibited Nme2Cas9”; with AcrIIC3Nme, “completely inhibited Nme2Cas9”; with AcrIIC2Nme, “completely inhibited Nme2Cas9”; with AcrIIC5Smu, “did not inhibit Nme2Cas9 in vitro even at a 10-fold molar excess”.
